{"source": "patent US5723127", "biological_target": "B7 (cell surface glycoprotein, CD28-ligand B7) (Homo sapiens (Human)) (UniProt P33681)", "data": [{"substance": "CTLA-4Ig (chimeric recombinant soluble B7-ligand) (from UniProt P16410) (Fc fusion)", "values": [{"measurement": "IFN-γ production in PBMC stimulated with IL-12 alone (RIA)", "result": "> 5", "unit": "fold"}]}]}
